Assay results taken from the Immune Epitope Database (IEDB).

molecular target: HLA-A*01:01; experiment: IEDB peptide-MHC binding, purified MHC/competitive/radioactivity; filed as Kd, often an IC50 or EC50 that approximates it; ≥ and ≤ were set here for values at or beyond the usual limits of such assays; settings: source organism: Clostridium botulinum

**Q.** How did the Kd turn out when DMIVDAIPY was run?
**A.** ≥ 50000 nM

**Q.** How did the Kd turn out when GMQNIYIKY was run?
**A.** 2470 nM

**Q.** For ITYFKKIYY, which Kd is on record?
**A.** 2330 nM

**Q.** KSKSIFFEY was tested. Which Kd did it give?
**A.** 7060 nM

**Q.** How did the Kd turn out when LHEYKQGDY was run?
**A.** ≥ 50000 nM

**Q.** How did the Kd turn out when RNEFSNVEY was run?
**A.** ≥ 50000 nM

same assay, conditions: source organism: Clostridium perfringens

**Q.** Which Kd does the source give for LGDGVKDHY here?
**A.** 11600 nM

same assay, conditions: source organism: Hepacivirus hominis

**Q.** With FTIFKIRMY as the sequence, how does the Kd read?
**A.** 3500 nM

same assay, conditions: source organism: Hepatitis B virus adw/Okinawa/PODW282

**Q.** PLDKGIKPY was tested. Which Kd did it give?
**A.** 2210 nM

same assay, conditions: source organism: Hepatitis C virus (isolate Japanese)

**Q.** For PGDPPQPEY, which Kd is on record?
**A.** ≥ 50000 nM

same assay, conditions: source organism: Human immunodeficiency virus type 1 (NEW YORK-5 ISOLATE)

**Q.** With ETKLGKAGY as the sequence, how does the Kd read?
**A.** ≥ 42000 nM

**Q.** With ETPGIRYQY as the sequence, how does the Kd read?
**A.** 2150 nM

same assay, conditions: source organism: Human papillomavirus 16

**Q.** For FEDPTRRPY, which Kd is on record?
**A.** ≥ 50000 nM

**Q.** For VCDKCLKFY, which Kd is on record?
**A.** ≥ 50000 nM

same assay, conditions: source organism: Influenza A virus (A/Texas/1/1977(H3N2))

**Q.** With AFDERRNKY as the sequence, how does the Kd read?
**A.** ≥ 50000 nM

same assay, conditions: source organism: Mycobacterium tuberculosis

**Q.** With SSLGLPVSY as the sequence, how does the Kd read?
**A.** 9660 nM

**Q.** For VTPEQRPLY, which Kd is on record?
**A.** 2710 nM

same assay, conditions: source organism: Neisseria gonorrhoeae

**Q.** How did the Kd turn out when DPEMADVTY was run?
**A.** ≥ 50000 nM

**Q.** Which Kd does the source give for EKEVVPDFY here?
**A.** ≥ 50000 nM

**Q.** FDEKNQDKY was tested. Which Kd did it give?
**A.** ≥ 50000 nM

**Q.** GKDLYYKNY was tested. Which Kd did it give?
**A.** ≥ 50000 nM

**Q.** With GTYDYWAGY as the sequence, how does the Kd read?
**A.** 1180 nM

**Q.** How did the Kd turn out when IRDMTEKQY was run?
**A.** ≥ 50000 nM

**Q.** How did the Kd turn out when KSWQEWNIY was run?
**A.** 17900 nM

**Q.** With KTQNGKKQY as the sequence, how does the Kd read?
**A.** ≥ 50000 nM

**Q.** With LSQDALTNY as the sequence, how does the Kd read?
**A.** 2060 nM

**Q.** With QNDYDEDDY as the sequence, how does the Kd read?
**A.** 14000 nM

**Q.** With QRESTAMAY as the sequence, how does the Kd read?
**A.** ≥ 50000 nM

**Q.** Which Kd does the source give for RPDLSLRSY here?
**A.** ≥ 50000 nM

**Q.** How did the Kd turn out when RSYNLKLSY was run?
**A.** 6220 nM

**Q.** How did the Kd turn out when TTRPGLAGY was run?
**A.** ≥ 35000 nM

**Q.** For VREFPEDQY, which Kd is on record?
**A.** ≥ 50000 nM

**Q.** How did the Kd turn out when YDEDDYSYY was run?
**A.** ≥ 50000 nM

molecular target: HLA-A*01:01; experiment: IEDB peptide-MHC binding, purified MHC/competitive/radioactivity; ≥ and ≤ were set here for values at or beyond the usual limits of such assays; settings: source organism: Clostridium botulinum

**Q.** With CSNDKSLVY as the sequence, how does the IC50 read?
**A.** 115 nM

**Q.** With FLDQWWTEY as the sequence, how does the IC50 read?
**A.** 1.1 nM

**Q.** With FVEDPNGKY as the sequence, how does the IC50 read?
**A.** 677 nM

**Q.** For IIEDQYNRY, which IC50 is on record?
**A.** 179 nM

**Q.** Which IC50 does the source give for ISDESYRVY here?
**A.** 183 nM

**Q.** With LTYKYNQFY as the sequence, how does the IC50 read?
**A.** 12 nM

**Q.** Which IC50 does the source give for TSIPFLHEY here?
**A.** 618 nM

**Q.** Which IC50 does the source give for TSPYELSLY here?
**A.** 255 nM

same assay, conditions: source organism: Clostridium perfringens

**Q.** For STTAGPNEY, which IC50 is on record?
**A.** 785 nM

same assay, conditions: source organism: Hepacivirus hominis

**Q.** LTPRCMVDY was tested. Which IC50 did it give?
**A.** 538 nM

**Q.** Which IC50 does the source give for VQDCNCSIY here?
**A.** 78 nM

same assay, conditions: source organism: Hepatitis B virus adw/Okinawa/PODW282

**Q.** Which IC50 does the source give for LTKQYLNLY here?
**A.** 84 nM

**Q.** For PTTGRTSLY, which IC50 is on record?
**A.** 54 nM

same assay, conditions: source organism: Homo sapiens

**Q.** ETLEEITGY was tested. Which IC50 did it give?
**A.** 984 nM

**Q.** With GTQLFEDNY as the sequence, how does the IC50 read?
**A.** 237 nM

**Q.** TQDLVQEKY was tested. Which IC50 did it give?
**A.** 20 nM

**Q.** How did the IC50 turn out when YTAVVPLVY was run?
**A.** 1.5 nM

same assay, conditions: source organism: Mycobacterium tuberculosis

**Q.** HTEFEGQVY was tested. Which IC50 did it give?
**A.** 6.8 nM

**Q.** With RSARASSRY as the sequence, how does the IC50 read?
**A.** 622 nM

**Q.** VAEGDTVIY was tested. Which IC50 did it give?
**A.** 840 nM

same assay, conditions: source organism: Neisseria gonorrhoeae

**Q.** For ASADKPYSY, which IC50 is on record?
**A.** 280 nM

**Q.** With GTATYLPPY as the sequence, how does the IC50 read?
**A.** 120 nM

**Q.** How did the IC50 turn out when HSAEALQKY was run?
**A.** 398 nM

**Q.** With KAEVHTFYY as the sequence, how does the IC50 read?
**A.** 233 nM

**Q.** For LSGNGHFHY, which IC50 is on record?
**A.** 125 nM

**Q.** For LTAGLDFAY, which IC50 is on record?
**A.** 26 nM

**Q.** LTEIDIRDY was tested. Which IC50 did it give?
**A.** 65 nM

**Q.** Which IC50 does the source give for NTFVQANLY here?
**A.** 492 nM
